Series [1] deals with Sox2-HMG (thrombin cleaved) (Homo sapiens, UniProt P48431 38-121). The series can be described thus: fluorescence anisotropy; 10 mM Tris-HEPES pH 7.5, 8% Ficoll, 0.05% NP-40, 135 mM KCl, 15 mM NaCl, 1 mM DTT, 0.1 mg/mL BSA; 2 nM DNA or 3 nM RNA. The note with it: protein: recombinant, tags: N-terminal GSHM left after thrombin cleavage of His6. (Fluorescence polarisation rises when a labelled molecule tumbles more slowly, as on binding a larger partner.)

A further series concerns the target Sox2 full length (Homo sapiens, UniProt P48431 1-317). The series is described as above. To be noted: protein: recombinant, tags: N-terminal His6 and thrombin site (retained).
Series [2] has as its target T1, Sox2-HMG (Homo sapiens, UniProt P48431 40-123). Put plainly: fluorescence anisotropy; 10 mM Tris-HEPES pH 7.5, 135 mM KCl, 15 mM NaCl, 1 mM DTT, 8% Ficoll, 0.05% NP-40, 0.1 mg/mL BSA; 2 nM DNA or 3 nM RNA; room temperature (stated for competition). To be noted: protein: recombinant, tags: N-terminal His6, thrombin cleaved.
The target in series [3] is T1, Sox2-HMG. Put plainly: EMSA; 10 mM Tris-HEPES pH 7.5, 135 mM KCl, 15 mM NaCl, 1 mM DTT, 8% Ficoll, 0.05% NP-40, 0.1 mg/mL BSA; 2 nM DNA or 3 nM RNA; room temperature (stated for competition). The note with it: protein: recombinant; tags: N-terminal His6, thrombin cleaved; label: 3' fluorescein; hairpin. In general terms: In EMSA bound probe runs differently from free probe, usually more slowly.

Series [4] has as its target Sox2-HMG (HRV 3C cleaved) (Homo sapiens, UniProt P48431 38-121). The series can be described thus: fluorescence anisotropy; 10 mM Tris-HEPES pH 7.5, 8% Ficoll, 0.05% NP-40, 135 mM KCl, 15 mM NaCl, 1 mM DTT, 0.1 mg/mL BSA; 2 nM DNA or 3 nM RNA. The note with it: protein: recombinant; tags: N-terminal GPHM left after removal of His8-MBP; label: 3'-FAM; hairpin.
Series [5] addresses T1, Sox2-HMG. Put plainly: competition; unlabeled RNA vs labeled FGF4 DNA; 10 mM Tris-HEPES pH 7.5, 135 mM KCl, 15 mM NaCl, 1 mM DTT, 8% Ficoll, 0.05% NP-40, 0.1 mg/mL BSA; 2 nM DNA or 3 nM RNA; room temperature (stated for competition). The note with it: protein: recombinant; tags: N-terminal His6, thrombin cleaved; label: 3' fluorescein; hairpin.
The mark [6] stands for this setting: label: FAM, only (+) strand given.
[7] abbreviates: label: 3' fluorescein, unstructured.

The text below walks through data of article PMC7156710, “The Sox2 transcription factor binds RNA”.

Values joined by “and” are separate entries in the source; they are usually repeats but may differ in a detail not shown here. Identical values can stand only once.

T1 sequence (P48431 40-123): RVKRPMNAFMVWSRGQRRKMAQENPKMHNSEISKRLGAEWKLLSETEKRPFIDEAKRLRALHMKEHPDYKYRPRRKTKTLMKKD
Sox2-HMG (HRV 3C cleaved), sequence (P48431 other isoform, or with tags, fused parts or gaps): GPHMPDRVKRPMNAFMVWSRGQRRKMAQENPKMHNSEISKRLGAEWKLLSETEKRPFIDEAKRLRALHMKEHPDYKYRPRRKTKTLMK
Sox2-HMG (thrombin cleaved), sequence (P48431 other isoform, or with tags, fused parts or gaps): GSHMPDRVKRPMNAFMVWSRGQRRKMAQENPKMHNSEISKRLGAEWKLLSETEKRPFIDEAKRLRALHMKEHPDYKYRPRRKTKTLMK
Sox2 full length, sequence (P48431 whole entry): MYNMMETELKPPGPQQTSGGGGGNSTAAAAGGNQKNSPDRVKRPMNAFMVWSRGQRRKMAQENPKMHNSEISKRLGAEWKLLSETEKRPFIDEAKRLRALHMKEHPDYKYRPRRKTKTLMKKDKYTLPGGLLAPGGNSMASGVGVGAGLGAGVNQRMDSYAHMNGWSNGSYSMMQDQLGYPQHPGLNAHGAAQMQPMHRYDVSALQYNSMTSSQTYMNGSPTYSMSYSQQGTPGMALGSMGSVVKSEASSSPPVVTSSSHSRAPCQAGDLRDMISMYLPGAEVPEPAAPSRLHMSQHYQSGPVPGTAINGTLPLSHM

What is called Kd is the concentration at which binding is half-saturated. Regarding GGUGGGCUCCUUUGGGAGGGUGCUCUUCUUUGUCUACC (structured_RNA) [Loop C], the Kd in series [1] (label: 3' fluorescein, hairpin) is 11.2 ± 1.57 nM.

B1: ES2 179-267 (structured_RNA)
RNA: GGGUCUGUUAACCAUCACCACUGGUUCUACAUUAAGUAGGAGGUUCAGGGCUAAGCUAAUAACUCGCCUGCCUUUCUGACUGAUCACAG
B1: in series [1] (label: 3' fluorescein), the Kd came to 11.5 ± 2.68 nM.

B2: CCND1_SM6 dsDNA (dsDNA)
DNA 1: CGCGCACTACAGCCCGGGT
DNA 2: ACCCGGGCTGTAGTGCGCG
For B2, in series [1] (setting [6]), the Kd amounted to 23.8 ± 5.4 nM.

B3: ES2 89-267 (structured_RNA)
RNA: GGCUGGAACAUCUGUUUCUAGCUUGUUGUUCCUCUUGGCUGCUUUUCAAUUGGAUUUCCUCGAGCAGGUCCCAGGCUUGUCACUGCAGCCAGGGUCUGUUAACCAUCACCACUGGUUCUACAUUAAGUAGGAGGUUCAGGGCUAAGCUAAUAACUCGCCUGCCUUUCUGACUGAUCACAG
Consider B3, for which, in series [1] (label: 3' fluorescein), the Kd is 32.4 ± 6.56 nM.

With AUACAACAUACAACAUACAACAUACAACAUACAACA (ssRNA) [env8 ssRNA], the Kd is 512 ± 76.5 nM with Sox2 full length (setting [7]) and 502 ± 123 nM in series [1] (setting [7]).

B4: env4 Cbl riboswitch (structured_RNA)
RNA: GGUGUUAAAAGCAUAGUGGGAAAGUGACGUGUAAUUCGUCCACAUUACUUGAUGCGGUUAUAGUCCCAAUGCCACCUAACACAAAGUACGAGCAAGGAGACUC
Regarding B4, in series [1] (label: 3' fluorescein), the Kd turned out to be 32.4 ± 1.08 nM.

In the case of GGUCGCCGUGGCCACUUCGAAAGGGGUGGAAAGGGCGACC (structured_RNA) [Loop A], the dissociation constant (Kd) in series [1] (label: 3' fluorescein, hairpin) came to 11.3 ± 2.5 nM.

With GGAUCAUGCGGGCGAAAGUCUGUACCUCUCC (structured_RNA) [Loop B, P1(3bp)], the Kd in series [1] (label: 3' fluorescein, hairpin) was 10.3 ± 1.94 nM.

B5: ES2 1-89 (structured_RNA)
RNA: GGAAGAAGUGAAAUCACUAUAUUUAGAAACGAAUGCUACCAUCCCACCCCAACUACAUGUUCAGGUUAAAUGCGUGCACAUCCUGGUAG
Take B5: the Kd in series [1] (label: 3' fluorescein) worked out at 22.2 ± 3.26 nM.

B6: Loop B fully paired RNA duplex (dsRNA)
RNA 1: GGUCUUAUCAUGCGGGC
RNA 2: GCCCGCAUGAUAAGACC
For B6, in the series with Sox2-HMG [2] (label: FAM on one strand, blunt), the Kd stood at 54 ± 9 nM.

B7: CCND1_SM1 dsDNA (dsDNA)
DNA 1: CGCGCCCTCTTCCCCGGGT
DNA 2: ACCCGGGGAAGAGGGCGCG
For the molecule B7, the Kd in series [1] (setting [6]) came out at 9.77 ± 1.07 nM.

B8: SOX2 enhancer dsDNA (dsDNA)
DNA 1: CGCGCCATTGTGCCCGGGT
DNA 2: ACCCGGGCACAATGGCGCG
In the case of B8, in series [1] (setting [6]), the Kd was 0.867 ± 0.219 nM.

B9: DPPA4 enhancer dsDNA (dsDNA)
DNA 1: CGCGCATTTGTACCCGGGT
DNA 2: ACCCGGGTACAAATGCGCG
B9: the Kd in series [1] (setting [6]) is 3.4 ± 0.954 nM.

For GGUCUUAUCAUGCGGGCGAAAGUCUGUAUGAUGGGACC (structured_RNA) [Loop B, Fully Paired], the Kd in the series with Sox2-HMG [2] (label: 3' fluorescein, hairpin) worked out at 15 ± 2 nM; in series [1] (label: 3' fluorescein, hairpin), 14.7 ± 1.68 nM; with Sox2-HMG [3], 20 ± 4 nM.

B10: ES2 89-178 (structured_RNA)
RNA: GGCUGGAACAUCUGUUUCUAGCUUGUUGUUCCUCUUGGCUGCUUUUCAAUUGGAUUUCCUCGAGCAGGUCCCAGGCUUGUCACUGCAGCCA
B10: the Kd in series [1] (label: 3' fluorescein) turned out to be 13.4 ± 1.63 nM.

B11: ES2 1-178 (structured_RNA)
RNA: GGAAGAAGUGAAAUCACUAUAUUUAGAAACGAAUGCUACCAUCCCACCCCAACUACAUGUUCAGGUUAAAUGCGUGCACAUCCUGGUAGCUGGAACAUCUGUUUCUAGCUUGUUGUUCCUCUUGGCUGCUUUUCAAUUGGAUUUCCUCGAGCAGGUCCCAGGCUUGUCACUGCAGCCA
B11: in series [1] (label: 3' fluorescein), the Kd is 29.7 ± 4.07 nM.

B12: tRNALeu(CAG) (structured_RNA)
RNA: GCGAAGGUGGCGGAAUUGGUAGACGCGCUAGCUUCAGGUGUUAGUGUCCUUACGGACGUGGGGGUUCAAGUCCCCCCCCUCGCACCAGGAUCU
B12: the Kd in series [1] (label: 3' fluorescein) was 26.5 ± 5.62 nM.

In the case of GGUCUUAUCAUGCGCGAAAGUGUACCUCUGGGACC (structured_RNA) [Loop B, P2(5bp)], the Kd in series [1] (label: 3' fluorescein, hairpin) was 9.6 ± 1.32 nM.

As to GGUAUCAUGCGGAAACGCACCUCUACC (structured_RNA) [Loop B, P1/2(3bp)], the Kd in series [1] (label: 3' fluorescein, hairpin) was found to be 10.6 ± 1.82 nM. Still for that read-out and setting: as for GGUCUUAUCAUGCGAAAGUACCUCUGGGACC (structured_RNA) [Loop B, P2(3bp)], the figure is 11.4 ± 1.46 nM.

B13: Loop B fully paired RNA duplex (Fig. 3g) (dsRNA)
RNA 1: GGUCUUAUCAUGCGGGC
RNA 2: GCCCGCAUGAUAAGACC
As for B13, the Kd in series [1] (label: FAM on one strand) came to 35.1 ± 2.81 nM. Take GGUCCGAAAGGACC (structured_RNA) [5 bp hairpin]: the Kd in series [4] was 71 ± 12.1 nM.

B14: ES2 267-354 (structured_RNA)
RNA: GGUGAUGUUCGCCGUGGCCACUUAUCAUGCGGGCUCCUUUGGGAGGGUGCUCUUCUUUGUCUGUACCUCUGGGUGGAAAGGGCGAAUUC
As to B14, the Kd in series [1] (label: 3' fluorescein) was found to be 10.3 ± 2.03 nM. The term Ki denotes a measure of affinity in units of concentration, obtained from inhibition or displacement. For the molecule GGUCUUAAGGUGCGGGCGAAAGUCUGUACCUCUGGGACC (structured_RNA) [Loop B, Bulge(0+1)], the Kd in series [1] (label: 3' fluorescein, hairpin) came to 10 ± 1.66 nM. The Ki in the series with Sox2-HMG [5] was found to be 13 ± 4 nM. Consider GGUCUUAUCGUGCGGGCGAAAGUCUGUACCUCUGGGACC (structured_RNA) [Loop B, Bulge(2+3)], for which, in series [1] (label: 3' fluorescein, hairpin), the Kd amounted to 13.6 ± 2.46 nM. On the same count and under the same terms, next, GGUCUUAUGGUGCGGGCGAAAGUCUGUACCUCUGGGACC (structured_RNA) [Loop B, Bulge(1+2)]: 12 ± 1.98 nM. Regarding GGUCUUAUCAUGCGGGCGAAAGUCUGUACCUCUGGGACC (structured_RNA) [Loop B], the Kd in series [1] (label: 3' fluorescein, hairpin with internal loop) turned out to be 10 ± 1.68 nM.

B15: FGF4 enhancer dsDNA (dsDNA)
DNA 1: CGCGCCTTTGTTCCCGGGT
DNA 2: ACCCGGGAACAAAGGCGCG
B15: the Kd with Sox2 full length (setting [6]) is 2.1 ± 0.599 nM; in series [1] (setting [6]) it was 0.937 nM and 0.85 nM. For the molecule GGUUAUCAUGCGGGCGAAAGUCUGUACCUCUGGCC (structured_RNA) [Loop B, P1(5bp)], the Kd with Sox2-HMG [2] (label: 3' fluorescein, hairpin) worked out at 12.8 ± 1.8 nM; in series [1] (label: 3' fluorescein, hairpin), 12.8 ± 1.84 nM.

B16: ES2 179-354 (structured_RNA)
RNA: GGGUCUGUUAACCAUCACCACUGGUUCUACAUUAAGUAGGAGGUUCAGGGCUAAGCUAAUAACUCGCCUGCCUUUCUGACUGAUCACAGUGAUGUUCGCCGUGGCCACUUAUCAUGCGGGCUCCUUUGGGAGGGUGCUCUUCUUUGUCUGUACCUCUGGGUGGAAAGGGCGAAUUC
For the molecule B16, in series [1] (label: 3' fluorescein), the Kd is 11.2 ± 0.792 nM.

B17: xpt-pbuX riboswitch (structured_RNA)
RNA: GGACAUAUAAUCGCGUGGAUAUGGCACGCAAGUUUCUACCGGGCACCGUAAAUGUCCGACUAUGUCC
Take B17: the dissociation constant (Kd) in series [1] (label: 3' fluorescein) was determined as 25.4 ± 2.54 nM.

As to GGUCCAUGCGAAAGUAUGGACC (structured_RNA) [9 bp hairpin], the Kd in series [4] came to 54 ± 6.94 nM. Regarding GGUCCAUGCGGGCGAAAGUCUGUAUGGACC (structured_RNA) [13 bp hairpin], the Kd in series [4] is 83 ± 9.8 nM.
